Experimental data as given in doi:10.1101/2022.01.30.478305 (bioRxiv, 2022).

Molecular target: SARS-CoV-2 RBD-his (SARS-CoV-2, UniProt P0DTC2)
Assay: ELISA

B1: 16L9 (antibody, V domains shown)
VH: EVQLVESGGGLIQPGGSLRLSCAASGFTVSSNYMSWVRQAPGKGLEWVSVIYSGGSTYYADSVKGRFTISRDNSENTLYLQMNSLRAEDTAVYYCARGEIQPYYYYGMDVWGQGTTVTVSS
VL: QSVLTQPPSASGSPGQSVTISCTGTSSDFGGYNSVSWYQQHPGKAPKLMIYEVSKRPSGVPDRFSGSKSGNTASLTVSGLQAEDEADYYCSSYAGSNNFDVFGTGTKVTVL
B1: binds.
